Reference: patent publication US20080015137A1

Target: Karyopherin beta2 (Kapβ2), full length, wild type (human) (UniProt Q92973)
Test: ITC; MBP-M9NLS(257-305) mutant titrated into full length Kapβ2

Sequence of Karyopherin beta2 (Kapβ2), full length, wild type (human) (Q92973 9-898 limits assumed): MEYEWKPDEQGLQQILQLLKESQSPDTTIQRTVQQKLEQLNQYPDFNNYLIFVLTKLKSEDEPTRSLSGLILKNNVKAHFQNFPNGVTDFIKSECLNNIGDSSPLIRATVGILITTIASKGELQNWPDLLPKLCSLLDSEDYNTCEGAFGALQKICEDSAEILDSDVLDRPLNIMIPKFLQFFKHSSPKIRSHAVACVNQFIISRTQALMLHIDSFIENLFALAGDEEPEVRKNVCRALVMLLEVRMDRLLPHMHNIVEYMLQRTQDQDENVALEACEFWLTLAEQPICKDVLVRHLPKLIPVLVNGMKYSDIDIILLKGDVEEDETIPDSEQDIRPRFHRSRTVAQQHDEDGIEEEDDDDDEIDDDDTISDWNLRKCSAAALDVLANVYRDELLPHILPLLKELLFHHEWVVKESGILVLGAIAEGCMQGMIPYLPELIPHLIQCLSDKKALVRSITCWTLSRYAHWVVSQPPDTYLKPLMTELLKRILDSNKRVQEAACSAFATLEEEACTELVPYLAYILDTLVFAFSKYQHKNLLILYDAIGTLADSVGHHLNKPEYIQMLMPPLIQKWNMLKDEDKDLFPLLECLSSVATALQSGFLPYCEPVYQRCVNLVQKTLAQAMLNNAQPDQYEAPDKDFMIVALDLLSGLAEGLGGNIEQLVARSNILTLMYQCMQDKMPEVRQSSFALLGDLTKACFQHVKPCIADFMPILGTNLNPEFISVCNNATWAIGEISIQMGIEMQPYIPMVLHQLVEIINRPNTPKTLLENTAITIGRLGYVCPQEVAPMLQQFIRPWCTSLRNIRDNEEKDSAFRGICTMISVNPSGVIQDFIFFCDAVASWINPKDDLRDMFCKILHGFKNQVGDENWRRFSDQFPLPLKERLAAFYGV

Kd [nM] | Substance
133 | MBP-M9NLS(257-305) Y289A (from UniProt P09651 257-305)
83 | MBP-M9NLS(257-305) M276A (from UniProt P09651 257-305)
461 | MBP-M9NLS(257-305) R284A/P288A/Y289A (from UniProt P09651 257-305)
61 | MBP-M9NLS(257-305) F273A (from UniProt P09651 257-305)
56 | MBP-M9NLS(257-305) F281A (from UniProt P09651 257-305)
158 | MBP-M9NLS(257-305) P288A (from UniProt P09651 257-305)
5900 | MBP-M9NLS(257-305) G274A/P288A/Y289A (from UniProt P09651 257-305)
92 | MBP-M9NLS(257-305) R284A (from UniProt P09651 257-305)
746 | MBP-M9NLS(257-305) G274A (from UniProt P09651 257-305)
74 | MBP-M9NLS(257-305) P275A (from UniProt P09651 257-305)
136 | MBP-M9NLS(257-305) P288A/Y289A (from UniProt P09651 257-305)
